In patent US20220313819A1, “COMBINATION THERAPY FOR THE TREATMENT OF SOLID AND HEMATOLOGICAL CANCERS” (Arch Oncology, Inc., priority 2019, published 2022):

Tests used:
[1] = target: T1, His-CD47 (recombinant human CD47) (Homo sapiens, UniProt Q08722); assay: Solid-phase CD47 ELISA at pH 6 or pH 8; assay type: binding; details: pH 6.0 versus pH 8.0
T1 construct: His; purchased AcroBiosystems
Description: Binding by soluble anti-CD47 mAbs to immobilized recombinant human CD47 and to human CD47 expressed on cells was measured in vitro. For the in vitro binding to recombinant CD47, His-CD47 (AcroBiosystems) was adsorbed to high-binding microtiter plates overnight at 4° C. The wells were washed and varying concentrations of anti-CD47 mAbs were added to the wells in buffers with a of either pH 6 or pH 8 for 1 hour. The wells were washed and then incubated with HRP-labelled secondary antibody for 1 hour at pH 6 or pH 8 followed by addition of peroxidase substrate. The apparent affinities were calculated using non-linear fit model (Graphpad Prism).

Jurkat cells [2] = assay: Phagocytosis of tumor cells by human macrophages; assay type: cell-based; details: 1 μg/ml mAb
Description: Human derived macrophages were derived from leukapheresis of healthy human peripheral blood and incubated in AIM-V media (Life Technologies) for 7-10 days. For the in vitro phagocytosis assay, macrophages were re-plated at a concentration of 1×10^4 cells per well in 100 ul of AIM-V media in a 96-well plate and allowed to adhere for 24 hrs. Once the effector macrophages adhered to the culture dish, the target human cancer cells (Jurkat) were labelled with 1 μM 5(6)-Carboxyfluorescein diacetate N-succinimidyl ester (CFSE; Sigma Aldrich) and added to the macrophage cultures at a concentration of 5×10^4 cells in […] of AIM-V media (5:1 target to effector ratio). VLX4, VLX8, and VLX9 CD47 mAbs (1 μg/ml) were added immediately upon mixture of target and effector cells and allowed to incubate at 37° C. for 2-3 hours. After 2-3 hrs, all non-phagocytosed cells were removed and the remaining cells washed three times with phosphate buffered saline (PBS; Sigma Aldrich). Cells were then trypsinized, collected into microcentrifuge tubes, and incubated in 100 ng of allophycocyanin (APC) labelled CD14 antibodies (BD Biosciences) for 30 minutes, washed once, and analyzed by flow cytometry (Accuri C6; BD Biosciences) for the percentage of CD14^+ cells that were also CFSE^+ indicating complete phagocytosis.

Jurkat cells [3] = assay: Cell death by soluble mAb, annexin V / 7-AAD; assay type: cell-based, human; details: 1 μg/ml, 24 hrs
Description: Induction of cell death by soluble anti-CD47 mAbs is measured in vitro (Manna et al. (2003) J. Immunol. 107 (7): 3544-53, Kikuchi et al. Biochem Biophys Res. Commun. 315: 912-8, 2004), Pettersen et al. J. Immuno. 162: 7031-7040, 1999), Manna et al. Cancer Research, 64: 1026-1036, 2004). For the in vitro cell death assay, 1×10^5 transformed human T cells (Jurkat cells) were incubated with soluble humanized VLX4, VLX8, and VLX9 CD47 mAbs (1 μg/ml) for 24 hrs at 37° C. As cell death occurs, mitochondrial membrane potential is decreased, the inner leaflet of the cell membrane is inverted, exposing phosphatidylserines (PS), and propidium iodide (PI) or 7-aminoactinomycin D (7-AAD) is able to incorporate into nuclear DNA. In order to detect these cellular changes, cells were then stained with fluorescently labelled annexin V and PI or 7-aminoactinomycin D (7-AAD) (BD Biosciences) and the signal detected using an Accuri C6 flow cytometer (BD Biosciences). The increase in PS exposure is determined by measuring the percent increase in annexin V signal and the percent of dead cells by measuring the percent increase in PI or 7-AAD signal. Annexin V positive (annexin V^+) or annexin V positive/7-AAD negative (annexin V^+/7-AAD^−) cells are observed in early stages of cell death and annexin V positive/7-AAD positive (annexin V^+/7-AAD^+) cells are dead cells. […]

hRBCs = assay: Hemagglutination of washed human red blood cells; assay type: cell-based
Description: Hemagglutination of hRBCs was assessed following incubation of hRBCs with various concentrations of chimeric and humanized VLX4, VLX8, and VLX9 mAbs in vitro essentially as described by Kikuchi et al. Biochem Biophys Res. Commun (2004) 315:912-918. Blood was obtained from healthy donors, diluted (1:50) in PBS/1 mM EDTA/BSA and washed 3 times with PBS/EDTA/BSA. hRBCs were added to U-bottomed 96 well plates with equal volumes of the antibodies (75 μl of each) and incubated for 3 hrs at 37° C. and overnight at 4° C.

B1: VLX9 IgG (murine): murine VLX9 anti-CD47 antibody (antibody, V domains shown)
VH: QVQLQQFGAELAKPGASVQMSCKASGYTFTNYWIHWVKQRPGQGLEWIGYTDPRTDYTEYNQKFKDKATLAADRSSSTAYMRLSSLTSEDSAVYYCAGGGRVGLGYWGHGSSVTVSS
VL: DVFMTQTPLSLPVSLGDQASISCRSSQNIVQSNGNTYLEWYLQKPGQSPKLLIYKVFHRFSGVPDRFSGSGSGTDFTLKISRVEAEDLGVYYCFQGSHVPWTFGGGTKVEIK
- pH dependent binding to His-CD47 [1]: did not display pH dependence

B2: VLX9 IgG2 (xi): chimeric VLX9 anti-CD47 mAb, human IgG2 (antibody)
heavy: QVQLQQFGAELAKPGASVQMSCKASGYTFTNYWIHWVKQRPGQGLEWIGYTDPRTDYTEYNQKFKDKATLAADRSSSTAYMRLSSLTSEDSAVYYCAGGGRVGLGYWGHGSSVTVSSASTKGPSVFPLAPCSRSTSESTAALGCLVKDYFPEPVTVSWNSGALTSGVHTFPAVLQSSGLYSLSSVVTVPSSNFGTQTYTCNVDHKPSNTKVDKTVERKCCVECPPCPAPPVAGPSVFLFPPKPKDTLMISRTPEVTCVVVDVSHEDPEVQFNWYVDGVEVHNAKTKPREEQFNSTFRVVSVLTVVHQDWLNGKEYKCKVSNKGLPAPIEKTISKTKGQPREPQVYTLPPSREEMTKNQVSLTCLVKGFYPSDIAVEWESNGQPENNYKTTPPMLDSDGSFFLYSKLTVDKSRWQQGNVFSCSVMHEALHNHYTQKSLSLSPGK
light: DVFMTQTPLSLPVSLGDQASISCRSSQNIVQSNGNTYLEWYLQKPGQSPKLLIYKVFHRFSGVPDRFSGSGSGTDFTLKISRVEAEDLGVYYCFQGSHVPWTFGGGTKVEIKRTVAAPSVFIFPPSDEQLKSGTASVVCLLNNFYPREAKVQWKVDNALQSGNSQESVTEQDSKDSTYSLSSTLTLSKADYEKHKVYACEVTHQGLSSPVTKSFNRGEC
- phagocytosis of Jurkat cells by human macrophages (Jurkat cells [2]): increased phagocytosis
- PS exposure and cell death of Jurkat cells (annexin V^+, annexin V^+/7-AAD^−, annexin V^+/7-AAD^+) (Jurkat cells [3]): induced increased PS exposure and cell death
- HA hRBC (hRBCs; hemagglutination, chimeric (xi) mAbs, Table 1): Yes
- visible hemagglutination of hRBCs (hRBCs; result in words, mAb concentrations from 50 μg/ml down): caused visible hemagglutination
